Assay results as given in PMC10764318.
pKd: −log10 of the molar value.

What was measured:
Experiment in all cases: BLI
[1] = target: WRAIR-5011 (rhesus macaque)
[2] = target: WRAIR-5001 (rhesus macaque | human)
[3] = target: WRAIR-5005 (rhesus macaque)
[4] = target: WRAIR-5004 (rhesus macaque)
[5] = target: WRAIR-5021 (rhesus macaque)
[6] = target: WRAIR-5020 (rhesus macaque)
Chain of WRAIR-5020 (rhesus macaque) (VH, as listed by the source, chain 1 of 2): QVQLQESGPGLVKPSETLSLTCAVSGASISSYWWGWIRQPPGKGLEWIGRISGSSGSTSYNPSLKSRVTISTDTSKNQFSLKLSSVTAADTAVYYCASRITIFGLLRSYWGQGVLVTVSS
Chain of WRAIR-5020 (rhesus macaque) (VL, as listed by the source, chain 2 of 2): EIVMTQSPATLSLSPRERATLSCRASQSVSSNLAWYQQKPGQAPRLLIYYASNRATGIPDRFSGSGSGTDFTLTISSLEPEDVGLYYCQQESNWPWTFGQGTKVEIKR

Chain of WRAIR-5021 (rhesus macaque) (VH, as listed by the source, chain 1 of 2): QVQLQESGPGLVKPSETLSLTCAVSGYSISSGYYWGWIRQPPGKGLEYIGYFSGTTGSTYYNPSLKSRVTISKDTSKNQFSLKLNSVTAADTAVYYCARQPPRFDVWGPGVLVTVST
Chain of WRAIR-5021 (rhesus macaque) (VL, as listed by the source, chain 2 of 2): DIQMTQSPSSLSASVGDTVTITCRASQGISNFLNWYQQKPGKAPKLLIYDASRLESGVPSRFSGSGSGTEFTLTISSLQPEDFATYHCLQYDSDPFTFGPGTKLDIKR
Chain of WRAIR-5005 (rhesus macaque) (VH, as listed by the source, chain 1 of 2): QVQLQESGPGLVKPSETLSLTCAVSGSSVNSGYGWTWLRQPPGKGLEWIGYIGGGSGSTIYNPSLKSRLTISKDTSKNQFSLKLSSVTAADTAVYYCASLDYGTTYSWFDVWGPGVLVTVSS
Chain of WRAIR-5005 (rhesus macaque) (VL, as listed by the source, chain 2 of 2): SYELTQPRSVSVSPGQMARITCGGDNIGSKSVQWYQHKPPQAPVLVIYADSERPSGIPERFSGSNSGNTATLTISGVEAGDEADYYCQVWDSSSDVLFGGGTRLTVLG
Chain of WRAIR-5011 (rhesus macaque) (VH, as listed by the source, chain 1 of 2): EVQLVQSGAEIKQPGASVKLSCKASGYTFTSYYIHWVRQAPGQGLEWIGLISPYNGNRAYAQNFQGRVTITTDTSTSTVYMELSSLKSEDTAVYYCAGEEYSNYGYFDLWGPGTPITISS
Chain of WRAIR-5011 (rhesus macaque) (VL, as listed by the source, chain 2 of 2): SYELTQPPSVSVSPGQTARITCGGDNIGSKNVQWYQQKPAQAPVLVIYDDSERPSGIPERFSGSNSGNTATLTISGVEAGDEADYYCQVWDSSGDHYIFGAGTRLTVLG
Chain of WRAIR-5004 (rhesus macaque) (VH, as listed by the source, chain 1 of 2): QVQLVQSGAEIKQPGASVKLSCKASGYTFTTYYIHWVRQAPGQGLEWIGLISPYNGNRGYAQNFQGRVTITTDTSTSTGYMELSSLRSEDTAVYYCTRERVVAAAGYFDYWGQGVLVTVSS
Chain of WRAIR-5004 (rhesus macaque) (VL, as listed by the source, chain 2 of 2): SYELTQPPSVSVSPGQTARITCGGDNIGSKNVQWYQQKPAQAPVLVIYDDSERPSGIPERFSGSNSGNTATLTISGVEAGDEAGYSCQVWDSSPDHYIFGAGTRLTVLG

SARS-CoV-2 Omicron BA.1 RBD (from UniProt P0DTC2 331-527) (domain or fragment)
pKd [1]: 9.42
pKd [2]: 9.64
pKd [3]: 7.83
pKd [4]: 8.71
pKd [5]: 8.09
pKd [6]: 7.62

SARS-CoV-2 Omicron BA.4/5 RBD (from UniProt P0DTC2 331-527) (domain or fragment)
pKd [1]: 9.38
pKd [2]: 9.04
pKd [3]: 7.39
pKd [4]: 8.51
pKd [5]: 8.58
pKd [6]: 7.46
